# Source: article PMC10938628 (Science Advances, 2022)
# B1: CarHCC (Phe161-Leu276 of the photoreceptor CarH; C-terminal Rossmann-fold B12-binding segment of split CarHC) (domain or fragment, UniProt Q53W62 161-276, looked up)
# chain: FPPGPPVLVTTPPGERHEIGAMLAAYHLRRKGVPALYLGPDTPLPDLRALARRLGAGTVVLSAVLSEPLRALPDGALKDLAPRVFLGGQGAGPEEARRLGAEYMEDLKGLAEALWL
# B2: reconstituted split CarHC complex (CarHCN + CarHCC held together by a cobalamin) (complex)
# chain 1: PEDLGTGLLEALLRGDLAGAEALFRRGLRFWGPEGVLEHLLLPVLREVGEAWHRGEIGVAEEHLASTFLRARLQELLDLAGFPPGPP
# chain 2: FPPGPPVLVTTPPGERHEIGAMLAAYHLRRKGVPALYLGPDTPLPDLRALARRLGAGTVVLSAVLSEPLRALPDGALKDLAPRVFLGGQGAGPEEARRLGAEYMEDLKGLAEALWL
# Assays:
# [1] = molecular target: intact CarHC (C-terminal domain of the photoreceptor CarH); experiment: SEC
# [2] = molecular target: the molecule itself; experiment: SEC + other: dynamic light scattering
# SEC = molecular target: the molecule itself; experiment: SEC
molecule,measurement,setting,value
intact CarHC (C-terminal domain of the photoreceptor CarH) (domain or fragment),stoichiometry N,[1],4
B1,stoichiometry N,[2],4
B2,stoichiometry N,SEC,4
